PMC10199920, “Identification of a mycobacterial hydrazidase, an isoniazid-hydrolyzing enzyme” (Scientific Reports, 2023)

Experiments:
Type in all cases: biochemical, Mycolicibacterium smegmatis
Details in all cases: 50 mM sodium phosphate pH 7.0, 37 °C, 15 min
NC(=O)c1ccncc1 = assay: colorimetric ammonia formation, Lineweaver-Burk
Text: (§1) colorimetric ammonia formation, Lineweaver-Burk on PzaA

NC(=O)c1cnccn1 = assay: colorimetric ammonia formation, Lineweaver-Burk
Text: as §1

NC(=O)c1cccnc1 = assay: colorimetric ammonia formation, Lineweaver-Burk
Text: as §1

NNC(=O)c1ccncc1 = assay: colorimetric hydrazine formation (p-dimethylaminobenzaldehyde), Lineweaver-Burk
Text: (§2) colorimetric hydrazine formation (p-dimethylaminobenzaldehyde), Lineweaver-Burk on PzaA

NNC(=O)c1cccnc1 = assay: as above
Text: as §2

PzaA (Mycolicibacterium smegmatis MC2 155)
Km (NC(=O)c1ccncc1): 0.145 (0.0203) mM | Vmax (NC(=O)c1ccncc1): 6.48 µmol/min/mg | Vmax/Km (NC(=O)c1ccncc1): 44700 µL/min/mg | Km (NC(=O)c1cnccn1): 0.143 (0.0078) mM | Vmax (NC(=O)c1cnccn1): 11.7 µmol/min/mg | Vmax/Km (NC(=O)c1cnccn1): 81800 µL/min/mg | Km (NC(=O)c1cccnc1): 0.0887 (0.0113) mM | Vmax (NC(=O)c1cccnc1): 37.2 µmol/min/mg | Vmax/Km (NC(=O)c1cccnc1): 419000 µL/min/mg | Km (NNC(=O)c1ccncc1): 1.20 (0.271) mM | Vmax (NNC(=O)c1ccncc1): 1.51 µmol/min/mg | Vmax/Km (NNC(=O)c1ccncc1): 1260 µL/min/mg | Km (NNC(=O)c1cccnc1): 1.26 (0.0475) mM | Vmax (NNC(=O)c1cccnc1): 23.7 µmol/min/mg | Vmax/Km (NNC(=O)c1cccnc1): 18800 µL/min/mg
